Where “and” joins values, the source holds several entries; their conditions need not be identical. Identical values can stand only once.

For the data set the following is noted: Thermus thermophilus; pH 8; 25 °C; GdnHCl; Fluorescence; Tris-HCl 50 mM; reversible: No; whole UniProt chain shown.

B1: Small ribosomal subunit protein bS6 wild type, P23370 (protein)
chain: MRRYEVNIVLNPNLDQSQLALEKEIIQRALENYGARVEKVEELGLRRLAYPIAKDPQGYFLWYQVEMPEDRVNDLARELRIRDNVRRVMVVKSQEPFLANA
For B1, the denaturant m value is 2.54 kcal/mol/M and 2.76 kcal/mol/M and 2.7 kcal/mol/M.

The values above are taken from FireProtDB (doi:10.1016/j.jmb.2005.05.056).
